Data as given in the RNAGym collection of RNA variant scans (doi:10.7554/elife.80360).

B1: HDV Ribozyme (parent)
chain: GGCCGGCAUGGUCCCAGCCUCCUCGCUGGCGCCGGCUGGGCAACAUUCCGAGGGGACCGUCCCCUCGGUAAUGGCGAAUGGGACCCA

Variants of: B1
Assay: self-cleavage, relative activity (ratio to wild type); higher = more cleavage; co-transcriptional

| Variant | self-cleavage |
| --- | --- |
| C14A G35U | 0.232 |
| U27G A43G | 0.302 |
| U23G G81U | 0.117 |
| C3U A83C | 0.318 |
| C15U G74A | 0.383 |
| C14A A83C | 0.0755 |
| C44A C58G | 0.831 |
| G52A U69C | 1.21 |
| G80A A87U | 0.441 |
| C24A G76A | 0.769 |
| G68U C75U | 0.225 |
| U23A U65C | 1.09 |
| C49G U72G | 0.604 |
| G31U U69G | 0.386 |
| U79A A87U | 0.98 |
| G31U G35U | 0.0443 |
| A45U C49G | 0.458 |
| G53A A83C | 0.464 |
| A42C G67A | 0.249 |
| C75G G81C | 0.0831 |
| G28C A83C | 0 |
| G11A G74A | 0.0769 |
| C33A G34A | 0.166 |
| G31U U72A | 0.141 |

| Variant | self-cleavage |
| --- | --- |
| U47G C75G | 0.317 |
| C30G A51U | 0.0297 |
| A8G A42U | 0.317 |
| C7U G40A | 0.752 |
| G35A | 0.605 |
| G10A G73C | 0.19 |
| U20A C33G | 0.151 |
| C7G A56G | 0.208 |
| A45G G82A | 0.415 |
| G17A A70U | 0.616 |
| U60C C86A | 0.831 |
| G55A A87C | 1.1 |
| C36A C66U | 0.134 |
| C15G A70U | 0.415 |
| U37C A83C | 0.383 |
| U27A C32A | 0.0604 |
| G31U C63G | 0.483 |
| G25C U60A | 0.256 |
| C36U C41U | 0.602 |
| G35A U46A | 0.332 |
| G25A U46C | 0.0831 |
| C18G C62A | 0.113 |
| C7G C21A | 0 |
| G17C U20A | 0.0573 |

| Variant | self-cleavage |
| --- | --- |
| C21A A51G | 0.0326 |
| A56G U72G | 0.677 |
| C24A C64U | 0.866 |
| G29U C62U | 0.0804 |
| C62G A87G | 0.716 |
| G50C C57A | 1.04 |
| C19U U65A | 0.0791 |
| C44U C64A | 0.408 |
| A45C U69C | 0.623 |
| C41U C62A | 1.02 |
| C7A G50A | 0.527 |
| G35U C48G | 0.312 |
| G35U C48A | 0.49 |
| C41G C86G | 0.914 |
| C24A U27G | 0.415 |
| C26U G54U | 1.07 |
| A51C A87U | 0.881 |
| C4U G80C | 0.157 |
| G2C G68C | 0.0244 |
| C24A C61U | 0.757 |
| U60A G82U | 0.35 |
| C13G C15A | 0.128 |
| U27A C84A | 0.831 |
| G6A G68U | 0.691 |

| Variant | self-cleavage |
| --- | --- |
| U47C C66U | 0.725 |
| A8C C32A | 0.119 |
| C4G C15A | 0.142 |
| C26G A77U | 0.447 |
| G10C G76A | 1.2 |
| G1A C32G | 0.113 |
| C32U U46G | 0.646 |
| U37A U72C | 0 |
| G25A G50C | 0.181 |
| G11C G76U | 0.604 |
| C33A U47G | 0.378 |
| C32G A56G | 0.0852 |
| U37A G53U | 0.302 |
| A42C G55A | 0.578 |
| G11C U12G | 0.123 |
| U65A U69C | 0.782 |
| G10U C57A | 0.749 |
| G53U G73A | 0.831 |
| U9C A56G | 0.935 |
| U12A A87C | 0.251 |
| G31C U47G | 0.383 |
| G53C C66A | 0.73 |
| C13A A51G | 0.148 |
| U27A C48A | 0.831 |

| Variant | self-cleavage |
| --- | --- |
| C66G G76U | 0.88 |
| C15U U60C | 0.969 |
| U23A U79A | 0.646 |
| G5C C21U | 0.0554 |
| G2C G74C | 0.0308 |
| G25A C30A | 0.126 |
| C24A C33U | 0.363 |
| C22U C61A | 0.641 |
| C19G U65G | 0.111 |
| C44A | 0.764 |
| U27C G53U | 0.746 |
| C24A U72C | 0.253 |
| C24A U72G | 0.364 |
| U79G A87U | 0.511 |
| C58A C84U | 0.919 |
| G17A G82A | 0.272 |
| C3A C49G | 0.51 |
| C36U U65C | 0.712 |
| C19U U46A | 0.0875 |
| C3A U20A | 0.0683 |
| U46G G55A | 0.649 |
| C49G U69G | 0.831 |
| C14U G34U | 0.248 |
| U46G A83U | 0 |

| Variant | self-cleavage |
| --- | --- |
| G6A C63A | 0.407 |
| C22A G52A | 0.292 |
| C3A G81C | 0.0158 |
| C18U C66A | 0.407 |
| A16G G50C | 0.95 |
| G54U G68U | 0.842 |
| C13A G25C | 0.0773 |
| C61A A87C | 1.07 |
| C19A C24G | 0.158 |
| G25U G50U | 0.0361 |
| C49A G52A | 0.739 |
| C26G G76C | 0.884 |
| G34U A56C | 0.219 |
| A51U A77U | 0.815 |
| C15G G74C | 0.119 |
| C21G A42U | 0.0437 |
| A56G C84A | 1.16 |
| C63G C66G | 0.201 |
| C22U G35U | 0.0511 |
| U20A A42U | 0 |
| G2U C41G | 0.0119 |
| G17C G67C | 0.289 |
| C30G A56U | 0.116 |
| C33U A77U | 0.439 |

| Variant | self-cleavage |
| --- | --- |
| G40U C84G | 0.354 |
| A43C A83C | 0.332 |
| C36G U72C | 0.0462 |
| C26G C63G | 0.653 |
| G31C G38A | 0.0692 |
| C30U A83G | 0.302 |
| G76U C85G | 1.16 |
| C49G C58G | 0.855 |
| C13U C22U | 0.193 |
| C18G U20C | 0 |
| C18G G82A | 0.0462 |
| C7A A78G | 0.0875 |
| A43U G76U | 0.307 |
| A43U U69G | 0.199 |
| C44U A51U | 0.789 |
| G6U G55U | 0.942 |
| C7G C18G | 0 |
| C4U G40C | 0.128 |
| C33G G73C | 0.253 |
| U12A G53C | 0.475 |
| A16C C58U | 1.05 |
| G38A G54A | 0.273 |
| A16U G68C | 1.03 |
